Holding throughout (test): cell-based or functional assay
In assay [1] the target is HIV-1 Env of isolate MGRM-AG-011 (pseudovirus) (HIV-1).
Assay [2] concerns the target HIV-1 Env of isolate MGRM-F1-013 (pseudovirus) (HIV-1).
Assay [3] deals with HIV-1 JR-CSF Env D417A (HIV-1 (isolate JR-CSF)) (UniProt P20871).
In assay [4] the target is HIV-1 JR-CSF Env N392Q (HIV-1 (isolate JR-CSF)) (UniProt P20871).
Assay [5] deals with HIV-1 MGRM-AG-005 envelope protein (Env) on pseudovirus (HIV-1).
The target in assay [6] is HIV-1 envelope glycoprotein (Env) of isolate 92TH021, subtype AE (HIV-1).
Assay [7] deals with HIV-1 envelope glycoprotein (Env) of isolate MG RM-A-003, subtype A (HIV-1).
For assay [8], the target named is HIV-1 envelope glycoprotein (Env) of isolate MGRM-Chronic-B-020, on pseudovirus (HIV-1).
Assay [9] addresses HIV-1 Env of isolate MGRM-A-010 (subtype A) (HIV-1).
Assay [10] addresses HIV-1 Env of isolate MGRM-AG-008 (subtype AG) (HIV-1).
The target in assay [11] is HIV-1 Env of isolate MGRM-D-002 (pseudovirus) (HIV-1).
Assay [12] has as its target HIV-1 Env of isolate MGRM-D-026 (HIV-1).
The target in assay [13] is HIV-1 Env of isolate MGRM-F1-010 (HIV-1).
For assay [14], the target named is HIV-1 Env of isolate MGRM-F1-020 (HIV-1).
Assay [15] addresses HIV-1 Env of pseudovirus isolate MGRM-C-017 (clade C) (HIV-1).
The target in assay [16] is HIV-1 Env of pseudovirus isolate MGRM-C-025 (clade C) (HIV-1).
For assay [17], the target named is HIV-1 Env of isolate MGRM-G-014 (subtype G) (HIV-1).
Assay [18] addresses HIV-1 Env of isolate MGRM-G-027 (subtype G) (HIV-1).
The target in assay [19] is HIV-1 Env of isolate MGRM-C-017 (subtype C), on pseudovirus (HIV-1).
The target of assay [20] is HIV-1 Env of isolate MGRM-C-026 (subtype C), on pseudovirus (HIV-1).
Assay [21] concerns the target HIV-1 Env of pseudovirus isolate JR-FL (clade B) (HIV-1).
Assay [22] deals with HIV-1 Env of pseudovirus isolate MGRM-Chronic-B-001 (clade B) (HIV-1).
The target of assay [23] is HIV-1 92TH021 Env (pseudovirus) (HIV-1).
Assay [24] concerns the target HIV-1 92RW021 envelope glycoprotein (Env) on pseudovirus (HIV-1 (clade A)).
Assay [25] deals with HIV-1 94UG103 envelope (Env) on pseudovirus (HIV-1).
Assay [26] concerns the target HIV-1 Env of isolate 93TH305, clade B (HIV-1).
In assay [27] the target is HIV-1 Env of isolate APV_17, clade B (HIV-1).
For assay [28], the target named is HIV-1 Env of isolate MGRM-D-005 (clade D pseudovirus) (HIV-1).
Assay [29] addresses HIV-1 Env of isolate MGRM-D-012 (clade D pseudovirus) (HIV-1).
Assay [30] concerns the target HIV-1 Env of pseudovirus MGRM-F1-012 (clade F) (HIV-1).
In assay [31] the target is HIV-1 Env of pseudovirus MGRM-G-016 (HIV-1).
The target in assay [32] is HIV-1 Env of pseudovirus MGRM-G-027 (HIV-1).
Assay [33] addresses HIV-1 IAVI-C3 envelope (Env) on pseudovirus (HIV-1).
Assay [34] deals with HIV-1 MGRM-AG-003 Env (pseudovirus) (HIV-1).
Assay [35] has as its target HIV-1 MGRM-G-009 Env (pseudovirus) (HIV-1).
Assay [36] has as its target HIV-1 envelope glycoprotein (Env) of isolate MGRM-C-004 (HIV-1).

Where only a bound is given, the exact number is not on record here.

Results on 16 substances are retold here after patent publication US20240132578A1.

4858_P08 (PGT-123) (antibody): the IC50 (µg/mL), pseudovirus neutralization was greater than 50 µg/mL in assay [1] and 0.08 µg/mL in assay [2]. For the same substance, the Fold IC50 increase relative to wild-type (pseudovirus neutralization) came to 0.7 fold in [3] and 1 fold in assay [4]. The substance also gave an IC50 (ug/mL), pseudovirus neutralization in assay [5] of 0.104 µg/mL. In addition, the IC50, pseudovirus neutralization in assay [6] is greater than 50 µg/mL; in assay [7], 0.495 µg/mL; in assay [8] it was 0.005 µg/mL.

Consider 4838_L06 (PGT-121) (antibody), for which the IC50 (µg/mL), pseudovirus neutralization in assay [2] turned out to be 0.083 µg/mL. Also, the results for the IC50, pseudovirus neutralization in [6], in assay [7] and in [8] were greater than 50 µg/mL, 0.435 µg/mL and 0.004 µg/mL, respectively.

Regarding 5145_B14 (PGT-127) (antibody), the IC50 (µg/mL), pseudovirus neutralization in [1] and in assay [2] was greater than 50 µg/mL in each case. Further, the values for the Fold IC50 increase relative to wild-type (pseudovirus neutralization) in [3] and in assay [4] were 0.4 fold and 1.1 fold, respectively. Also, the IC50, pseudovirus neutralization in assay [6] is greater than 50 µg/mL; in [7], greater than 50 µg/mL; in [8], 0.05 µg/mL.

Turning to 5136_H01 (PGT-131) (antibody), the IC50, pseudovirus neutralization in assay [9] was 0.01 µg/mL; in assay [10], greater than 50 µg/mL; in [15] it was greater than 50 µg/mL; in [16], greater than 50 µg/mL. Further, the IC50 (µg/mL), pseudovirus neutralization in assay [11] is 11.2 µg/mL; in assay [12] it was greater than 50 µg/mL; in [13] it was greater than 50 µg/mL; in assay [14] it was greater than 50 µg/mL. Besides, the Fold IC50 increase relative to wild-type (pseudovirus neutralization) was determined as 1 fold in [3] and 0.4 fold in assay [4].

As for 5114_A19 (PGT-128) (antibody), the IC50, pseudovirus neutralization in assay [9] turned out to be 0.005 µg/mL; in [10], 0.668 µg/mL; in [15], 1.06 µg/mL; in assay [16], 10.5 µg/mL. The IC50 (µg/mL), pseudovirus neutralization was 0.011 µg/mL in assay [11], greater than 50 µg/mL in [12], 16.7 µg/mL in [13] and 0.355 µg/mL in assay [14]. Moreover, the Fold IC50 increase relative to wild-type (pseudovirus neutralization) in assay [3] worked out at 0.5 fold; in assay [4], 0.9 fold.

Turning to PGV04 (antibody), the IC50 (µg/mL), pseudovirus neutralization in assay [1] came out at 0.071 µg/mL; in assay [14], 5.99 µg/mL; in assay [17], 0.056 µg/mL; in [18] it was 0.125 µg/mL.

With 4970_K22 (PGT-144) (antibody), the IC50, single-round pseudovirus neutralization in [19] is 23 µg/mL; in assay [20], greater than 50 µg/mL. For the same substance, the IC50 (µg/mL), pseudovirus neutralization was 0.562 µg/mL in assay [17] and greater than 50 µg/mL in [18]. For the same substance, the IC50, pseudovirus neutralization in [21] and in assay [22] was greater than 50 µg/mL each time.

In the case of 4995_E20 (PGT-142) (antibody), the IC50, single-round pseudovirus neutralization in assay [19] is 1.11 µg/mL; in [20] it was greater than 50 µg/mL. In addition, the IC50 (µg/mL), pseudovirus neutralization is 0.076 µg/mL in assay [17] and greater than 50 µg/mL in assay [18]. In addition, the IC50, pseudovirus neutralization in assay [21] and in assay [22] was greater than 50 µg/mL in each case.

Regarding 4877_D15 (PGT-122) (antibody), the values for the IC50 (µg/mL), pseudovirus neutralization in assay [1] and in assay [2] were greater than 50 µg/mL and 0.152 µg/mL, respectively. The IC50 (ug/mL), pseudovirus neutralization in assay [5] was greater than 10 µg/mL. Further, the IC50, pseudovirus neutralization in assay [6] was greater than 50 µg/mL; in [7], 3.79 µg/mL; in assay [8] it was 0.005 µg/mL.

For the substance 5345_I01 (PGT-137) (antibody), the IC50, pseudovirus neutralization in assay [9], in assay [10], in assay [15] and in assay [16] was greater than 50 µg/mL throughout. Further, the IC50 (µg/mL), pseudovirus neutralization was greater than 50 µg/mL in [11], greater than 50 µg/mL in assay [12], greater than 50 µg/mL in assay [13] and 1.93 µg/mL in [14].

4993_K13 (PGT-141) (antibody): the IC50, single-round pseudovirus neutralization was 4.02 µg/mL in assay [19] and greater than 50 µg/mL in assay [20]. For the same substance, the IC50 (µg/mL), pseudovirus neutralization is 0.222 µg/mL in [17] and greater than 50 µg/mL in [18]. In addition, the IC50, pseudovirus neutralization in assay [21] and in [22] was greater than 50 µg/mL in each case.

As to 5141_B17 (PGT-126) (antibody), the IC50 (µg/mL), pseudovirus neutralization in assay [1] is 24.5 µg/mL; in [2] it was greater than 50 µg/mL. The results for the Fold IC50 increase relative to wild-type (pseudovirus neutralization) in [3] and in assay [4] were 1 fold and 1.6 fold, respectively. Moreover, in assay [5], the IC50 (ug/mL), pseudovirus neutralization is 1.35 µg/mL. For the same substance, the IC50, pseudovirus neutralization in assay [6] is 0.197 µg/mL; in assay [7], greater than 50 µg/mL; in assay [8], 0.021 µg/mL.

For the substance 4995_P16 (PGT-145) (antibody), the IC50, single-round pseudovirus neutralization in [19] and in [20] was greater than 50 µg/mL each time. The IC50 (µg/mL), pseudovirus neutralization in [17] was determined as 0.144 µg/mL; in assay [18], 0.433 µg/mL. Besides, the values for the IC50, pseudovirus neutralization in assay [21] and in [22] were 30.4 µg/mL and 3.22 µg/mL, respectively.

For the substance 4980_N08 (PGT-143) (antibody), the IC50, single-round pseudovirus neutralization in assay [19] is 5.17 µg/mL; in [20], greater than 50 µg/mL. The IC50 (µg/mL), pseudovirus neutralization in assay [17] is 0.107 µg/mL; in [18] it was greater than 50 µg/mL. In addition, the IC50, pseudovirus neutralization in assay [21] and in [22] was greater than 50 µg/mL in each case.

In the case of 5123_A06 (PGT-125) (antibody), the Neutralization by PGT-125, IC50 in [23] worked out at 6.6 ng/mL. The Neutralization by PGT-125, IC80 in assay [23] was 0.0292 µg/mL. For the same substance, in assay [23], the Neutralization by PGT-125, IC90 came out at 0.0701 µg/mL. In assay [23], this substance came in with a Neutralization by PGT-125, IC95 of 0.157 µg/mL. Besides, the IC50 (µg/mL), pseudovirus neutralization in assay [1] and in assay [2] was greater than 50 µg/mL in each case. Besides, the Fold IC50 increase relative to wild-type (pseudovirus neutralization) in assay [3] is 0.5 fold; in assay [4], 1.2 fold. The same substance registered an IC50 (ug/mL), pseudovirus neutralization in [5] greater than 10 µg/mL. In addition, the results for the IC50, pseudovirus neutralization in assay [6], in assay [7] and in [8] were 0.006 µg/mL, greater than 50 µg/mL and 0.087 µg/mL, respectively.

Consider 1496_C09 (PG9) (TCN-109) (antibody), for which the IC50 (µg/ml), pseudovirus neutralization came to 0.05 µg/mL in assay [24]; 0.09 µg/mL in [23]; 2.08 µg/mL in assay [26]; 14.6 µg/mL in assay [27]; 0.4 µg/mL in [31]; 0.01 µg/mL in assay [32]. Moreover, the IC50 (µg/ml), pseudovirus neutralization in assay [34] was found to be 9.71 µg/mL; in assay [35], 4.9 µg/mL; in assay [36] it was 1.18 µg/mL. Besides, the neutralization IC50 in [25] stood at 0.173 µg/mL; in assay [33], 12.9 µg/mL. Besides, the IC50 (µg/mL), pseudovirus neutralization stood at 0.007 µg/mL in assay [1], 6.4 µg/mL in assay [14], 16.5 µg/mL in [17] and 0.007 µg/mL in assay [18]. The IC50, pseudovirus neutralization in assay [28] turned out to be 0.59 µg/mL; in assay [29], 9.31 µg/mL. The IC50 (in general, the concentration that gives 50% inhibition) in assay [30] was 0.01 µg/mL.
